Experimental data: the Human Domainome abundance scans (Beltran et al. 2025)

B1: Homeobox protein SIX6, residues 134 to 184; numbered along this chain, O95475 (parent)
chain: CFKERTRHLLREWYLQDPYPNPSKKRELAQATGLTPTQVGNWFKNRRQRDR

Variants of: B1
Experiment: abundance fitness (aPCA) (normalised: wild type 0, dead -1); higher = more abundant; growth selection in yeast, the domain comes from the species named
Conditions: Homo sapiens

Abundance fitness, by site and new letter:
R7: N -0.138 | L 0.051 | P -0.359 | D 0.167 | Q 0.02 | V -0.058 | T 0.01 | G -0.22 | C -0.306 | K 0.126
K44: S -0.282 | V -0.543 | R -0.112 | D -0.57 | G -0.68
W42: R -0.762 | P -0.983 | E -0.683 | K -0.952
A29: V -0.767 | H -0.944 | S -0.058 | W -0.923 | G -0.397 | D -0.504 | E -0.815
D17: R -0.899 | V -0.934 | S -0.706 | C -0.749 | W -0.912 | K -0.905
K24: F -0.984 | S -0.192 | H -0.493 | P -0.864 | G -0.374 | R -0.104
T37: C -0.109 | D 0.026 | Q 0.026 | R 0.084 | M -0.249 | Y -0.236 | P -0.673 | K 0.568 | N -0.169 | A -0.005
P20: V -0.613 | W -1.05 | H -0.693 | M -0.817
L10: W -0.892 | K -0.993 | M -0.676 | V -1.12 | T -0.888 | S -0.916 | H -0.841 | P -0.793
R49: L -0.277 | I -0.482 | V -0.503 | K -0.203 | W -0.594 | C -0.376 | H -0.889 | F -0.238
V39: D -0.953 | E -0.906 | R -0.882 | M -0.944
T6: M -0.042 | Y -0.45 | H -0.356 | W -0.182 | R -0.3 | L -0.095 | V 0.173 | D -0.45
E12: M -0.204 | Y -0.454 | C -0.262 | W -0.413 | D -0.124 | R -0.529
L9: S -0.793 | K -0.258 | R -0.314 | W -1.12 | I 0.145 | V -0.328 | H -0.626 | E -0.751 | G -0.914
K25: F -0.272 | A -0.334 | Y -0.338 | S -0.423 | L 0.049 | R -0.098 | Q 0.158
N45: V -0.612 | L -0.401 | K -0.13 | W -0.535
Q16: M -0.253 | A -0.027 | R -0.172 | V -0.067 | H -0.406
Q48: R 0.515 | P -0.795 | W -0.079 | H 0.11 | D -0.221
H8: G -0.1
L34: Q -0.731 | P -0.747 | K -0.722 | G -0.742 | C -0.806 | V -0.861 | F -0.725 | Y -0.587 | W -0.548
R51: A -0.353 | T -0.529 | V -0.545 | L -0.431 | W -0.832 | E -0.094
P22: Q -0.352 | I -0.618 | W -0.281
R46: A -0.17 | Y -0.505 | I -0.845 | N -0.037 | T -0.055 | Q 0.11 | K -0.151 | H -0.72 | F -0.522
G33: N -0.499 | Q -0.514 | L -0.735 | Y -0.741 | H -0.61 | P -0.848 | I -0.936 | D -0.629 | S -0.598 | E -0.722
Q38: E -0.301 | T -0.676 | F -0.741 | D -0.626 | R -0.868 | C -0.798 | K -0.608
G40: V -0.605 | F 0.225 | A 0.01
R11: I 0.051 | V -0.249 | G -0.119
